Tested on: H-NS (Escherichia coli)
Assay: EMSA
Details: apparent Kd; 200 pM DNA; EMSA: H-NS 0-500 nM, 200 pM 32P-labelled DNA, 4% polyacrylamide gel run at 4 C; buffer, salt and pH not stated (as in ref 99)

Substance	Kd [nM]
GC rich region of pBR322	200
bglG DRE (bglB primer pair)	10

From PMC4713147
